Tests used:
HUVEC = assay: Western blot of pAkt in HUVEC after PTEN siRNA knockdown; assay type: cell-based, human; details: PTEN siRNA 20 nM, SEMA3F 1800 ng/ml
Procedure: FIG. 36A depicts a western blot. HUVEC were treated with SEMA3F (1800 ng/ml) for 30 minutes and were subjected to immunoprecipitation and Western blot analyses with anti-NRP2 and -PTEN as illustrated. FIG. 36B depicts a western blot. HUVEC were transfected with control-, or Plexin A1-specific siRNAs (20 nM), prior to SEMA3F treatment (1800 ng/ml); lysates were subjected to immunoprecipitation and Western blot analyses with anti-NRP2 and anti-PTEN as illustrated. FIG. 36C depicts a western blot. HUVEC were transfected with control-, or PTEN-specific siRNAs (20 nM), prior to SEMA3F treatment (1800 ng/ml); lysates were analyzed by Western blot. FIG. 36D depicts a western blot. U87MG cells were transfected with control or GIPC1-specific siRNA (20 nM). After 48 hours, cells were treated with SEMA3F (200, 600, 1800 ng/ml, from left to right) for 30 minutes, and were analyzed by Western blot. FIG. 36E depicts a western blot. U87MG cells were treated with U0126 (10 μM) for 30 minutes prior to combination with 30 minutes and 60 minutes of SEMA3F (640 ng/ml). Akt and MAPK signaling was analyzed by Western blot. All data presented are representative of 3 independent experiments.
It is thus likely that SEMA3F inactivates mTORC2 via upstream inhibition of PI-3K. […]

VEGF promoter = VEGF promoter luciferase assay in U87MG cells; assay type: cell-based, human
Procedure: FIGS. 31A-31B depict U87MG cells transiently co-transfected with a full-length human VEGF promoter luciferase plasmid and a pGL4.74 [hRluc/TK] plasmid as an internal control. Cells were treated with SEMA3F (640 ng/ml for 30 minutes) prior to the addition of DFO (250 μM) or the culture of cells in a hypoxia chamber (1% 02). After 18 hours, VEGF promoter luciferase activity was analyzed. FIG. 31C depicts a graph of U87MG cells transiently cotransfected with our VEGF promoter luciferase and pGL4.74 [hRluc/TK] plasmids and with either a pcDNA3.1 empty vector or our constitutively active Akt (2DAkt). The cells were treated with SEMA3F for 30 minutes prior to the addition of DFO. After 18 hours, VEGF promoter luciferase activity was analyzed. FIG. 31D depicts a graph of parental U87MG cells treated with SEMA3F, rapamycin (10 nM), Torin 1 (10 nM) alone or in combination as indicated for 30 minutes prior to the addition of DFO, and culture supernatants were collected after 18 hours; VEGF protein levels were analyzed by ELISA. In each panel data are representative of 3 independent experiments. Bar graphs represent the mean±SD of n=3 experiments performed in triplicate, *, p<0.01 vs. control.
SEMA3F inhibits hypoxia-induced production of VEGF via the mTOR pathway. The local expression and regulation of VEGF is key to many physiological and pathological processes (40, 41). These findings indicate that SEMA3F can target the transcriptional activation of VEGF via its ability to target mTOR kinase activity (36, 42). To test the effect of SEMA3F on the regulation of VEGF expression, U87MG cells were transfected with a full-length 2.6 kb VEGF promoter-luciferase construct and exposed to the hypoxia mimetic agent desferrioxamine (DFO) or hypoxia (1% 02). […] To test the relative effect of SEMA3F on mTORC1/C2, U87MG cells transiently co-transfected with the 2DAkt construct and the full length VEGF promoter reporter construct, and the cells cultured in the absence or presence of SEMA3F. […] Finally, the effect of SEMA3F on the secretion of VEGF into conditioned media (by ELISA) was determined in the absence or presence of DFO.
Transfection and Luciferase assay: U87MG cells were transiently transfected with plasmid constructs (pcDNA3.1, WT mTOR, 2DAkt, VEGF luciferase reporter plasmid or pGL4.74 [hRluc/TK]) as indicated using Lipofectamine 2000 reagent (Life Technologies) according to the manufacturer's instructions. After 18 hours, cells were treated as outlined in each experimental design. VEGF promoter activity was analyzed using a Dual-Luciferase Reporter Assay System (Promega), and luciferase activity was normalized by Renilla luciferase as an internal control.

B1: SEMA3F: Human recombinant full-length His-Myc-tagged SEMA3F, secreted by transfected 293T cells and purified; class 3 semaphorin, NRP-2 ligand (protein, listed as Homo sapiens)
chain: MLVAGLLLWASLLTGAWPSFPTQDHLPATPRVRLSFKELKATGTAHFFNFLLNTTDYRILLKDEDHDRMYVGSKDYVLSLDLHDINREPLIIHWAASPQRIEECVLSGKDVNGECGNFVRLIQPWNRTHLYVCGTGAYNPMCTYVNRGRRAQATPWTQTQAVRGRGSRATDGALRPMPTAPRQDYIFYLEPERLESGKGKCPYDPKLDTASALINEELYAGVYIDFMGTDAAIFRTLGKQTAMRTDQYNSRWLNDPSFIHAELIPDSAERNDDKLYFFFRERSAEAPQSPAVYARIGRICLNDDGGHCCLVNKWSTFLKARLVCSVPGEDGIETHFDELQDVFVQQTQDVRNPVIYAVFTSSGSVFRGSAVCVYSMADIRMVFNGPFAHKEGPNYQWMPFSGKMPYPRPGTCPGGTFTPSMKSTKDYPDEVINFMRSHPLMYQAVYPLQRRPLVVRTGAPYRLTTIAVDQVDAADGRYEVLFLGTDRGTVQKVIVLPKDDQELEELMLEEVEVFKDPAPVKTMTISSKRQQLYVASAVGVTHLSLHRCQAYGAACADCCLARDPYCAWDGQACSRYTASSKRRSRRQDVRHGNPIRQCRGFNSNANKNAVESVQYGVAGSAAFLECQPRSPQATVKWLFQRDPGDRRREIRAEDRFLRTEQGLLLRALQLSDRGLYSCTATENNFKHVVTRVQLHVLGRDAVHAALFPPLSMSAPPPPGAGPPTPPYQELAQLLAQPEVGLIHQYCQGYWRHVPPSPREAPGAPRSPEPQDQKKPRNRRHHPPDT
modifications: His-Myc tag
notes: Human recombinant full-length His-Myc-tagged SEMA3F, secreted by transfected 293T cells and purified; class 3 semaphorin, NRP-2 ligand
pAkt expression following siRNA knockdown of PTEN (HUVEC): failed to inhibit pAkt expression | inhibition of DFO-induced VEGF promoter activity (VEGF promoter; SEMA3F 640 ng/ml pre-treatment 30 minutes, DFO 250 μM, 18 hours): 43% | reduction of hypoxia-induced VEGF promoter activity (VEGF promoter; SEMA3F 640 ng/ml, 18 hours culture in 1% O2): 44% | VEGF promoter activity in 2DAkt transfected cells (VEGF promoter; SEMA3F 30 minutes prior to DFO): failed to attenuate VEGF promoter activity
